Here are results for two molecules from paper PMC7588232, “Molecular mechanism for direct actin force-sensing by α-catenin” (eLife, 2020).

In the assay the target is F-actin (filamentous actin), unlabeled, from chicken skeletal muscle (chicken, UniProt P68139 1-377). Briefly: cryo-EM structure; 0.6 uM F-actin in KMEI applied to the grid, then 10 uM metavinculin ABD or 20 uM α-catenin ABD in KMEI, 25 °C; helical reconstruction (IHRSR, RELION 3.0). The following applies: both partners purified.

B1: H. sapiens metavinculin ABD (879-1134), not Halo-tagged (domain or fragment)
chain: EEKDEEFPEQKAGEVINQPMMMAARQLHDEARKWSSKPGIPAAEVGIGVVAEADAADAAGFPVPPDMEDDYEPELLLMPSNQPVNQPILAAAQSLHREATKWSSKGNDIIAAAKRMALLMAEMSRLVRGGSGTKRALIQCAKDIAKASDEVTRLAKEVAKQCTDKRIRTNLLQVCERIPTISTQLKILSTVKATMLGRTNISDEESEQATEMLVHNAQNLMQSVKETVREAEAASIKIRTDAGFTLRWVRKTPWYQ
notes: residues 981-1131 modelled in the map; Form used for cryo-EM; source: E. coli Rosetta2(DE3), purified (Ni-NTA, TEV cleavage, HiTrapQ, Superdex 200; no glycerol); not shown: His6, N-terminal, cleaved; Strep-tag, N-terminal, cleaved
Broadly, the stoichiometry N is a count of units in the complex or per binding partner. B1: the “stoichiometry N” value is 1.

B2: H. sapiens α-catenin ABD (αE-catenin 664-906), not Halo-tagged (domain or fragment)
chain: IAGQSARAIMAQLPQEQKAKIAEQVASFQEEKSKLDAEVSKWDDSGNDIIVLAKQMCMIMMEMTDFTRGKGPLKNTSDVISAAKKIAEAGSRMDKLGRTIADHCPDSACKQDLLAYLQRIALYCHQLNICSKVKAEVQNLGGELVVSGVDSAMSLIQAAKNLMNAVVQTVKASYVASTKYQKSQGMASLNLPAVSWKMKAPEKKPLVKREKQDETQTKIKRASQKKHVNPVQALSEFKAMDSI
notes: residues 699-871 modelled in the map; Form used for cryo-EM; source: E. coli Rosetta2(DE3), purified (Ni-NTA, TEV cleavage, HiTrapQ, Superdex 200; no glycerol); not shown: His6, N-terminal, cleaved; Strep-tag, N-terminal, cleaved
Consider B2, for which the “stoichiometry N” value was 1.
